In article PMC8476798, “SLURP-1 Controls Growth and Migration of Lung Adenocarcinoma Cells, Forming a Complex With α7-nAChR and PDGFR/EGFR Heterodimer” (Frontiers in Cell and Developmental Biology, 2021):

Columns and labels:
[1] = target: nicotinic acetylcholine receptor of α7 type (α7-nAChR) (human (endogenous in A549)) (UniProt P36544); conditions: scale: % of viable cells relative to the control
[2] = target: nicotinic acetylcholine receptor of α7 type (α7-nAChR) (human (endogenous in A549)) (UniProt P36544)
[3] = target: nicotinic acetylcholine receptor of α7 type (α7-nAChR) (human (endogenous in A549)) (UniProt P36544); remark: listed apart in the source
[4] = target: nicotinic acetylcholine receptor of α7 type (α7-nAChR) (human (endogenous in A549)) (UniProt P36544); remark: listed apart in the source
[5] = target: nicotinic acetylcholine receptor of α7 type (α7-nAChR) (human (endogenous in A549), UniProt P36544 23-502); assay: cell-based or functional assay
nicotinic acetylcholine receptor of α7 type (α7-nAChR), sequence (P36544 23-502): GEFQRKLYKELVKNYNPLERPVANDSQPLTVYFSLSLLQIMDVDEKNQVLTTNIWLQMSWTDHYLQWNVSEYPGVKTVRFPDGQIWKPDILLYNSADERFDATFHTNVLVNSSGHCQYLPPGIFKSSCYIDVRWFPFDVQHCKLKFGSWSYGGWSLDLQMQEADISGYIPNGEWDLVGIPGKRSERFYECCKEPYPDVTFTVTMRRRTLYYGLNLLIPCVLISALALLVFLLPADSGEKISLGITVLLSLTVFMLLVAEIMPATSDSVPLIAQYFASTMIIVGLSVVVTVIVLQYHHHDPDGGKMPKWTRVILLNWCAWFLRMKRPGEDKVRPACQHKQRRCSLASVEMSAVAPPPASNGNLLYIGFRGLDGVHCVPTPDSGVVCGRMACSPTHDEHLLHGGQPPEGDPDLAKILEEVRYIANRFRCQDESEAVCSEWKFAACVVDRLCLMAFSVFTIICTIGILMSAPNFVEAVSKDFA

nicotinic acetylcholine receptor of α7 type (α7-nAChR) (human (endogenous in A549)), sequence (P36544 23-502): as above

chimeric protein NTII/SL-1(I) was tested. Which antiproliferative activity in A549 cells, WST-1 test, 48 h with 1 μM protein, % of viable cells relative to the control [1] did it give?
Its antiproliferative activity in A549 cells, WST-1 test, 48 h with 1 μM protein, % of viable cells relative to the control is 70.

“synthetic peptide “loop III” with the sequence of loop III of SLURP-1” was tested. Which IC50 of inhibition of ACh-evoked currents at human α7-nAChRs expressed in X. laevis oocytes (two-electrode voltage clamp, 100 μM ACh) [2] did it give?
The IC50 of inhibition of ACh-evoked currents at human α7-nAChRs expressed in X. laevis oocytes (two-electrode voltage clamp, 100 μM ACh) was greater than 250000 nM.

What does the source list for “synthetic peptide “loop I” mimicking loop I of SLURP-1”?
EC50 of the inhibition of A549 cell migration, scratch assay (control cells without knock-down) [3]: 226 nM; IC50 of inhibition of ACh-evoked currents at human α7-nAChRs expressed in X. laevis oocytes (two-electrode voltage clamp, 100 μM ACh) [2]: 74000 nM; EC50 of the decrease of A549 cell viability, WST-1 test, 48 h [4]: 1800 nM

B1: recombinant analogue of human SLURP-1 (rSLURP-1) (natural protein, UniProt P55000 23-103, looked up)
chain: LKCYTCKEPMTSASCRTITRCKPEDTACMTTLVTVEAEYPFNQSPVVTRSCSSSCVATDPDSIGAAHLIFCCFRDLCNSEL
How did the “EC50 of the decrease of A549 cell viability, WST-1 test, 48 h” value [5] turn out when B1 was run?
The value was 10.1 nM.

And the “IC50 of inhibition of ACh-evoked currents at human α7-nAChRs expressed in X. laevis oocytes (two-electrode voltage clamp, 100 μM ACh)” value [5]?
Its value is 12000 nM.
